The values that follow come from patent US20250269047A1 (MABWELL SHANGHAI BIOSCIENCE, published 2025).

By EC50 is commonly meant the concentration at which the effect is half-maximal. As usually defined, the Kd is the free concentration of one partner at which half of the binding sites on the other are occupied at equilibrium, for simple one-to-one binding. Usually koff stands for a measure of how fast the partners let go of each other. One may read the kon as the second-order rate constant of association.

For test [1], the target named is T1, recombinant cynomolgus B7-H3-his protein (Cat.: 90806-C08H, Beijing Yiqiao Shenzhou Science and Technology … (cynomolgus)).
T1 construct: Bought reagent; also called recombinant monkey B7-H3
Briefly: ELISA, coated antigen 1 µg/ml. The procedure:
(§1) Plates were coated with recombinant human B7-H3-his extracellular domain protein (Accession No.: UniProtKB-Q5ZPR3, 1 aa-461 aa), recombinant cynomolgus B7-H3-his protein (Cat.: 90806-C08H, Beijing Yiqiao Shenzhou Science and Technology Co., Ltd.) and recombinant mouse B7-H3-his protein (Cat.: CM83, Beijing Yiqiao Shenzhou Science and Technology Co., Ltd.) respectively overnight at 4° C., each protein having a coating concentration of 1 μg/ml. Washed with PBS 3 times, the plates were blocked with the added 5% BSA PBS at 37° C. for 60 min, and then washed 3 times with PBST. Different dilutions of hz10B4 (diluted in a 3-fold gradient from a starting concentration of 10 μg/ml, 12 concentrations in total), hz17A3 (diluted in a 3-fold gradient from a starting concentration of 3 μg/ml, 12 concentrations in total), hz9B11 (diluted in a 3-fold gradient from a starting concentration of 10 μg/ml, 12 concentrations in total), Enoblituzumab (diluted in a 3-fold gradient from a starting concentration of 10 μg/ml, 12 concentrations in total), and MGC-018 (diluted in a 3-fold gradient from a starting concentration of 10 μg/ml, 12 concentrations in total) were added into the plates. The plates were incubated at 37° C. for 60 min, and then were washed 4 times with PBST. 1:5000 diluted HRP-anti-human Fc (Cat.: 109-035-098, Jackson Immuno Research) was added into the plates for incubation at 37° C. for 30 min. Afterwards, the plates were washed with PBST 4 times, and TMB substrate was added for color development. After incubation at 37° C. for 10 min, 2 M HCl was added to stop the reaction; and absorbances at 450 nm and at 630 nm (as reference wavelength) were read, and A450 nm-630 nm values of the wells in the plates were recorded.
Background: In an ELISA, binding on a coated surface is turned into a signal by an enzyme label.

Test [2] addresses T2, recombinant human B7-H3-his extracellular domain protein (UniProtKB-Q5ZPR3, 1 aa-461 aa) (human, UniProt Q5ZPR3 29-461).
T2 construct: range 1-461; The printed range 1-461 starts at residue 1 and so includes the signal peptide; also called Human B7-H3 ECD; recombinant human B7-H3-his protein; not shown: C-terminal his tag
T2 sequence (looked up): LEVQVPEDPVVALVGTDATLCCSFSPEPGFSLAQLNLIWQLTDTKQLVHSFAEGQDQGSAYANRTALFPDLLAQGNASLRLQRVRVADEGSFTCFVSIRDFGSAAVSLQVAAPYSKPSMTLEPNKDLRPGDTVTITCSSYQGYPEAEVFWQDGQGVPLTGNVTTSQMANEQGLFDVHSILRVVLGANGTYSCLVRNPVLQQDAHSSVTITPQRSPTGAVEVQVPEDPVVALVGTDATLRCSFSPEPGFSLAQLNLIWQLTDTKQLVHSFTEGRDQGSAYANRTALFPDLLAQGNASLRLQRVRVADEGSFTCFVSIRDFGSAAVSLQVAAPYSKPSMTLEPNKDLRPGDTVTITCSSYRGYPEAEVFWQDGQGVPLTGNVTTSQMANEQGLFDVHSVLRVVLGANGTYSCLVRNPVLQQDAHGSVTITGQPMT
Kind of test: ELISA, coated antigen 1 µg/ml. The protocol: as §1

Test [3] deals with T3, recombinant mouse B7-H3-his protein (Cat.: CM83, Beijing Yiqiao Shenzhou Science and Technology Co., Ltd.) (mouse, UniProt Q8VE98 29-244, limits assumed).
T3 construct: Bought reagent; not shown: his tag
T3 sequence (looked up): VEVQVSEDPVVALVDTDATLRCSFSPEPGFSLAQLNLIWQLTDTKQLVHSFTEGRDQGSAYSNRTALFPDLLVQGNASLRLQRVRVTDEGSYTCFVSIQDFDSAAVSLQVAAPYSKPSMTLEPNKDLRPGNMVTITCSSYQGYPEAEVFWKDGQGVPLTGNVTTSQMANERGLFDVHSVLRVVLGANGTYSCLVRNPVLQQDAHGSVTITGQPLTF
Briefly: ELISA, plate coated with 1 µg/ml recombinant mouse B7-H3-his, HRP-anti-human Fc. The procedure:
Plates were coated with recombinant human B7-H3-his extracellular domain protein (Accession No.: UniProtKB-Q5ZPR3, 1 aa-461 aa), recombinant cynomolgus B7-H3-his protein (Cat.: 90806-C08H, Beijing Yiqiao Shenzhou Science and Technology Co., Ltd.) and recombinant mouse B7-H3-his protein (Cat.: CM83, Beijing Yiqiao Shenzhou Science and Technology Co., Ltd.) respectively overnight at 4° C., each protein having a coating concentration of 1 μg/ml. Washed with PBS 3 times, the plates were blocked with the added 5% BSA PBS at 37° C. for 60 min, and then washed 3 times with PBST. […] After incubation at 37° C. for 10 min, 2 M HCl was added to stop the reaction; and absorbances at 450 nm and at 630 nm (as reference wavelength) were read, and A450 nm-630 nm values of the wells in the plates were recorded.

Test [4] concerns the target T2, recombinant human B7-H3-his …. Kind of test: BLI (Octet QKe), antibody on AHC biosensor, B7-H3-his in solution. The procedure: Affinities of the antibodies were determined by an assay including capturing Fc fragments of the antibodies with anti-human IgG Fc capture (AHC) biosensors using Octet QKe system instrument from Fortebio. For the assay, each of the antibodies (hz10B4, hz17A3, and hz9B11 as well as control antibodies MGC-018 and Enoblituzumab) was diluted to 4 μg/ml in PBS, and was allowed to flow through the surface of an AHC biosensor (Cat.: 18-0015, PALL) for 120 s. Recombinant human B7-H3-his extracellular domain protein (Accession No.: UniProtKB-Q5ZPR3, 1 aa-461 aa) was used as a mobile phase. The association time was 300 s and the dissociation time was 300 s. When the assay was finished, data from which the response values of blank control had been deducted were fitted to a 1:1 Langmuir binding model using software, and then kinetic constants for antigen-antibody binding were calculated.
The reaction curves of hz10B4, hz17A3, hz9B11 and control antibodies MGC-018, Enoblituzumab with recombinant human B7-H3 protein are shown in FIG. 8.
For orientation: Biolayer interferometry detects binding as a change in optical thickness at a sensor tip.

Test [5] deals with T3, recombinant mouse B7-H3-his protein …. Briefly: ELISA, plate coated with mouse B7-H3-his 1 µg/ml. The protocol: as §1
Test [6] addresses T2, recombinant human B7-H3-his …. Briefly: BLI (Octet QKe), antibody on AHC biosensor, B7-H3-his 60 nM in solution. The procedure:
Affinities of the antibodies were determined by an assay including capturing Fc fragments of the antibodies with anti-human IgG Fc capture (AHC) biosensors using Octet QKe system instrument from Fortebio. For the assay, each of the chimeric antibodies ch9B11, ch10B4, ch17A3 and the control antibody Enoblituzumab was diluted to 4 μg/ml in PBS, and was allowed to flow through the surface of an AHC biosensor (Cat.: 18-0015, PALL) for 120 s. Recombinant human B7-H3 extracellular domain protein (Accession No.: UniProtKB-Q5ZPR3, 1 aa-461 aa, C-his tag) (60 nM) was used as a mobile phase. The association time was 300 s and the dissociation time was 300 s. When the assay was finished, data from which the response values of blank control had been deducted were fitted to a 1:1 Langmuir binding model using software, and then kinetic constants for antigen-antibody binding were calculated.

B1: MGC-018 (antibody, human IgG1, kappa, V domains shown)
VH: EVQLVESGGGLVKPGGSLRLSCAASGFTFSSYGMSWVRQAPGKGLEWVATINSGGSNTYYPDSLKGRFTISRDNAKNSLYLQMNSLRAEDTAVYYCARHDGGAMDYWGQGTTVTVSS
VL: DIQMTQSPSSLSASVGDRVTITCRASESIYSYLAWYQQKPGKAPKLLVYNTKTLPEGVPSRFSGSGSGTDFTLTISSLQPEDFATYYCQHHYGTPPWTFGQGTRLEIKR
notes: naked antibody expressed in HEK293 by the applicants; also called control antibody MGC-018
Regarding B1, in test [1], the 50% effective concentration (EC50) amounted to 0.0782 nM. The EC50 in test [2] came out at 0.117 nM. Also, in test [3], the binding result is reported as “no binding”. Besides, in test [4], the Kd amounted to 0.597 nM, the koff turned out to be 0.000517 s⁻¹ and the association rate constant (kon) worked out at 865000 M⁻¹ s⁻¹.

B2: Enoblituzumab (antibody, human IgG1, kappa, V domains shown)
VH: EVQLVESGGGLVQPGGSLRLSCAASGFTFSSFGMHWVRQAPGKGLEWVAYISSDSSAIYYADTVKGRFTISRDNAKNSLYLQMNSLRDEDTAVYYCGRGRENIYYGSRLDYWGQGTTVTVSS
VL: DIQLTQSPSFLSASVGDRVTITCKASQNVDTNVAWYQQKPGKAPKALIYSASYRYSGVPSRFSGSGSGTDFTLTISSLQPEDFATYYCQQYNNYPFTFGQGTKLEIKR
notes: expressed in HEK293 by the applicants; also called control antibody Enoblituzumab; Positive Control (PC)
Regarding B2, the EC50 in test [1] amounted to 0.134 nM. Also, the concentration giving a half-maximal response (EC50) in test [2] amounted to 0.117 nM. In addition, the binding result in test [5] is listed as “no binding (tested: 10 µg/ml (highest concentration tested))”. Moreover, in test [6], the Kd amounted to 0.773 nM, the dissociation rate constant (koff) is 0.000256 s⁻¹ and the association rate constant (kon) was 331000 M⁻¹ s⁻¹. In addition, in test [4], the equilibrium dissociation constant (Kd) worked out at 0.95 nM, the off-rate constant (koff) is 0.000276 s⁻¹ and the kon was 291000 M⁻¹ s⁻¹.
